# Article PMC8440923, “Peptides Targeting the Interaction Between Erb1 and Ytm1 Ribosome Assembly Factors” (Frontiers in Molecular Biosciences, 2021)
# B1: Ytm1 (Chaetomium thermophilum ribosome assembly factor) (natural protein)
# chain: MDAPMEDAPAPVAQVKVIFTTTEPDLELPESKRQLLVPADIRRYGLSRILNSESMLDTGSIPFDFLINGSFLRSSLEDYLTSNGLSLETTLTLQYVRSLIPPVYEASFEHDDWVSAVDVLSATSPAGRWSSAANSSAAVQPGQERVLSASYDGLLRIWNASGSVIATSPSGSHGGHTASIKAAKFLTSDRLASAGMDRTVRVWKYTESDHFTGELKPTLELYGHTGSVDWLDVDGHSKHILTASADGAIGFWSASKASAPEPDASLLPGAHVSKRRKATSSVSTAQRGPLGLWSIHTAPATAAIFDPRDRTVAYSASQDHTVRTLDLTTGQVVSTLTLTHPLLSLSALTRAGTTSPLLAAGTSARHITMVDPRASSATTSVMTLRGHANKVVSLSPSPENEYSLVSGSHDGTCRVWDLRSVRPATKEEGSLGGVSEPVYVIERESWASKGKKKRPVAGDGCKVFSVVWDKLGIFSGGEDKKVQVNRGRNIVTEQK
# notes: Ytm1, Chaetomium thermophilum; YTM1 gene amplified from total cDNA and cloned in pOPIN-F; For MST, Ytm1 was labelled with the Red-NHS second-generation dye; source: Sf9 insect cells (baculovirus), purified (Histrap-HP Ni, Superdex 200 SEC)
# B2: Erb1 (Chaetomium thermophilum ribosome assembly factor) (natural protein, UniProt G0SCK6 1-801, looked up)
# chain: MGSKIVEKKRKSRDSDSESDNELGDGLFDGVLSQSEDEEDYIPSSEVDEDDDDDADESASEDSDDSNDSEDDEVEEDDEALLSDEIPSEGESEKDQDLAESKESKQDQDKEPSEPEILEPFVDPPRKEDEELEDRNYRIEKDANGGIRYVYDEIDPVYDSDDTDYNVPVNTIGNIPLSFYDSYPHIGYDINGKKIMRPATGDALQNLLDSIEVPEGWTGLTDPNTGKPLNLSRDELELIRKVQQGLIPDDVEDPYPDTVEWFTSVEEKMPLSAAPEPKRRFIPSKNEAKQIMKLVRAIREGRILPYKPPEEREREELEKEEEFYDLWQNEEPQPPNPMHIPAPKLPPPGYDLSYNPPPEYLPTKEEREEWEKMDPEDREKDYLPTKYDSLRKVPAWGNFVKERFERCMDLYLAPRVRKNRLNIDPNSLLPKLPSPDELKPFPTVQQTIFRGHEGRVRSVAIDPTGVALATGGDDGTVRVWELLTGRQVWSVKLNGDEAVNTVRWRPTKDTFILAAAAGEDIFLMIPTHPSVTPALDQASRDILNAGFGHATNGKQQANLPPGKEPPGKWARPGTRLEDEGVLLRITVRSTIKAISWHRRGDHFATVSPSGQRSSVAIHTLSKHLTQIPFRKLNGLAQTASFHPLRPLFFVATQRSIRCYDLQKLELVKIVQPGAKWISSFDVHPGGDNLVVGSYDKRLLWHDLDLSNRPYKTMRFHTEAIRAVRFHKGGLPLFADASDDGSLQIFHGKVPNDQLENPTIVPVKMLKGHKVVNKLGVLDIDWHPREPWCVSAGADGTARLWM
# notes: Erb1, Chaetomium thermophilum; cloned in pET28-NKI/LIC 6His/3C; Erb1 was held on Ni-NTA biosensors; source: E. coli (DE3) BL21 CodonPlus (RIPL), auto-induction, purified (Histrap-HP Ni, HiTrap Heparin, Superdex 200 SEC)
# How the values were obtained:
# Erb1/Ytm1 complex = target: T1, Erb1/Ytm1 complex (Thermochaetoides thermophila, UniProt G0SFB5); experiment: Biolayer interferometry peptide interference assay, immobilized Erb1, Ytm1 analyte preincubated with P1-P3; type: binding, Chaetomium thermophilum; conditions: BLI, 5 µM Ytm1 preincubated with equimolar peptide, reference without peptide 1.724e-3
# T1 construct: 6xHis; made in house; host or cells: Ytm1: Sf9 insect cells (baculovirus); Erb1: Escherichia coli (DE3) BL21 CodonPlus (RIPL)
# T1 sequence (G0SFB5 1-495): B1 chain
# Procedure: Peptides were commercially obtained from Synpeptide Co., Ltd., Shanghai, China. All experiments have been made in triplicates and include control curves for bait and analyte only.
# Potential interference peptide samples were evaluated by their ability to interfere the kinetics and affinity of the complex between Erb1 and Ytm1 as measured by Biolayer Interferometry (BLItz, Pall FortéBio Corp.) using Ni-NTA biosensors (FortéBio) and 50 mM HEPES, pH 7.5; 150 mM NaCl; 5% (v/v) glycerol; and 2 mM β-mercaptoethanol (BME) buffer. To set the reference KD, an 80 µg/ml solution of Erb1 was immobilized to the biosensor in order to obtain binding curves for increasing concentrations of Ytm1. According to this, an evaluation of Erb1-derived peptides (P1–P3) was performed using 5 µM Ytm1 previously incubated during 30 min at equimolar concentrations of each peptide. New KD values were determined. […]
# Biolayer interferometry interference assays were used to evaluate the ability of each peptide to interfere in the in vitro formation of the Erb1/Ytm1 complex. […] Peptides were evaluated for their ability to decrease in the Erb1/Ytm1 complex formation by preincubating the analyte with each peptide derived from the immobilized partner. […] Erb1-derived peptides were evaluated by their ability to decrease Erb1/Ytm1 complex affinity. […]
# Ytm1 [1] = target: T2, Ytm1 (Thermochaetoides thermophila, UniProt G0SFB5); experiment: Differential scanning fluorimetry (thermofluor) of Ytm1 with peptide; type: binding, Chaetomium thermophilum; conditions: DSF, SYPRO Orange 1:1,000; 5 µM Ytm1, 1 mM peptide; 50 mM HEPES pH 7.5, 150 mM NaCl; 20-85°C at 1°C/min; triplicates
# T2 construct: 6xHis; made in house; host or cells: Sf9 insect cells (baculovirus)
# T2 sequence (G0SFB5 1-495): B1 chain
# Procedure: Thermofluor assays ([Pantoliano et al., 2001]) were performed on a 7,500 Fast Real-Time PCR System (Applied Biosystems) measuring the gradual fluorescence generated by a 1:1,000 dilution of SYPRO Orange Protein Stain Gel (Supelco, Merck-Sigma) along with 1°C/min temperature increase from 20°C until 85°C.
# The samples were mixed containing the protein Ytm1 at 5 µM in 50 mM HEPES pH 7.5, 150 mM NaCl and peptides P1-P3 at 1 mM concentration. Previously, lyophilized P2 and P3 were resuspended in the same Ytm1 buffer and P1 was solubilized in 10 mM Tris (hydroxymethyl)-methylamine (Tris-HCl), pH 8.8 for P1. Data of triplicated experiments were analyzed using GraphPad Prism 5.01 software.
# Ytm1 [2] = target: T2, Ytm1; experiment: Microscale thermophoresis of labelled Ytm1 with peptide; type: binding, Chaetomium thermophilum; conditions: peptide at a maximum concentration of 1,580 µM, data quality did not allow fitting of KD
# Procedure: Microscale thermophoresis (MST) was used to determine the binding affinity between Ytm1 and P1. Ytm1 was labeled with a Red-NHS second-generation dye kit (100 µl at 10 µM of protein +300 µM dye solution) for 30 min at room temperature in the dark. 5 nM of labeled Ytm1 in 50 mM HEPES pH 7.5, NaCl 150 mM supplemented with 0.1% (v/v) Pluronic F-127 was used for the assay. P1 stock is diluted in 10 mM Tris (hydroxymethyl)-methylamine (Tris-HCl), pH 8.8. Ytm1 and P1 were mixed at 1:1 molar ratio in sixteen serial dilutions (1,230 μM–0.0751 µM) using the same buffer. Measurements were taken on a Monolith NT.115 instrument (NanoTemper Technologies). Similarly biding between Ytm1 and P3 using MST was tested using the same Ytm1 buffer also for P3. Curve fitting and KD calculations every 10 min were analyzed from three independent experiments with MO. […] Curves were analyzed using Affinity Analysis Software (NanoTemper Technologies).
# [3] = target: B2; experiment: BLI; interference assay; Erb1 (80 µg/ml) immobilised on Ni-NTA biosensor; 5 µM Ytm1 preincubated 30 min with equimolar Erb1-derived peptide (P1-P3) as analyte; 50 mM HEPES pH 7.5, 150 mM NaCl, 5% glycerol, 2 mM BME; conditions: both partners purified
# [4] = target: B2; experiment: BLI; BLItz; Ytm1 (80 µg/ml) immobilised on Ni-NTA biosensor, Erb1 as analyte; 50 mM HEPES pH 7.5, 150 mM NaCl, 5% glycerol, 2 mM BME; reference without peptide; conditions: both partners purified
# [5] = target: B2; experiment: BLI; BLItz; Erb1 (80 µg/ml) immobilised on Ni-NTA biosensor, increasing concentrations of Ytm1 as analyte; 50 mM HEPES pH 7.5, 150 mM NaCl, 5% glycerol, 2 mM BME; reference without peptide; conditions: both partners purified
# [6] = target: B1; experiment: BLI; interference assay; Ytm1 (80 µg/ml) immobilised on Ni-NTA biosensor; 20 µM Erb1 preincubated with equimolar Ytm1-derived peptide (P4-P6) as analyte; 50 mM HEPES pH 7.5, 150 mM NaCl, 5% glycerol, 2 mM BME; conditions: both partners purified
molecule,measurement,setting,value
"DWHPREPWCV [Peptide P3, Erb1-derived peptide …, residues 780–789]",kd (1/s) of Erb1/Ytm1 binding after preincubation of Ytm1 with peptide,Erb1/Ytm1 complex,0.01238 s⁻¹
same,Thermal shift (Tm) of Ytm1 in the presence of peptide,Ytm1 [1],did not show any significant thermal shift
same,Binding to Ytm1 by MST (in words),Ytm1 [2],tendency toward binding
B1,KD after preincubation of Ytm1 with equimolar P1,[3],190 nM
same,KD after preincubation of Ytm1 with equimolar P3,[3],170 nM
same,Kd,[4],229 nM
same,Kd,[5],32.3 nM
B2,KD after preincubation of Erb1 with equimolar P6,[6],2400 nM
